Measured values taken from patent publication US20240182563A1 (GENOME, published 2024).
Where a chain is given by its changes, count along the chain named. Blank lines part the entries; values can stand above or below the binder they belong to.

Tests used:
human CNTN4-rabbit Fc = biological target: T1, human CNTN4-rabbit Fc (human; rabbit, UniProt Q8IWV2 19-1000, limits assumed); assay: ELISA, plate coated with antigen-rabbit Fc, anti-human kappa-HRP
T1 construct: not shown: rabbit Fc
T1 sequence (looked up): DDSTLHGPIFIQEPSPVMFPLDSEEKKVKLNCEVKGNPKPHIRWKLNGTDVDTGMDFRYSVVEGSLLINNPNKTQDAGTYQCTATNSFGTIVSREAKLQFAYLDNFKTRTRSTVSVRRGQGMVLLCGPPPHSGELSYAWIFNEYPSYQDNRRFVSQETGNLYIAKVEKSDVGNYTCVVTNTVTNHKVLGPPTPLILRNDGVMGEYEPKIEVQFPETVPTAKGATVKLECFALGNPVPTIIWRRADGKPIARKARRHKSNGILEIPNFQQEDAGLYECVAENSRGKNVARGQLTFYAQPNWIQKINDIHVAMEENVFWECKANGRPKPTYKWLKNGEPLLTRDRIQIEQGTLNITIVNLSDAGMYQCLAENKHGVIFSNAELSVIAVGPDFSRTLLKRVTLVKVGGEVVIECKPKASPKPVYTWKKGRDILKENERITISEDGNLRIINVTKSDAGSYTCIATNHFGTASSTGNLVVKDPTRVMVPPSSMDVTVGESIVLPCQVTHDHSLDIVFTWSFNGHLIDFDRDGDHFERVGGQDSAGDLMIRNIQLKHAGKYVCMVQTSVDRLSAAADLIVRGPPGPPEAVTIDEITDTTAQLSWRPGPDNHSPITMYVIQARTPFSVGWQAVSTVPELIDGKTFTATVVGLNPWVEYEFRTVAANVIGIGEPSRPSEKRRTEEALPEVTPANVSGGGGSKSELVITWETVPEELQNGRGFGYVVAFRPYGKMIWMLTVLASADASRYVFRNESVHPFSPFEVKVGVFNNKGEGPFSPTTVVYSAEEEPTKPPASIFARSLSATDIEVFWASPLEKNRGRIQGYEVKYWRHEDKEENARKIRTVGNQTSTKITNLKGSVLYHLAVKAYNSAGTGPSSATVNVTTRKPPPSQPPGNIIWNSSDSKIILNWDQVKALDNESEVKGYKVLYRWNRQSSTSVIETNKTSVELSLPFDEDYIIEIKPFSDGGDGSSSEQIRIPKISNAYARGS

mouse CNTN4-rabbit Fc = biological target: T2, mouse CNTN4-rabbit Fc (mouse; rabbit, UniProt Q69Z26 19-1000, limits assumed); assay: as above
T2 construct: not shown: rabbit Fc
T2 sequence (looked up): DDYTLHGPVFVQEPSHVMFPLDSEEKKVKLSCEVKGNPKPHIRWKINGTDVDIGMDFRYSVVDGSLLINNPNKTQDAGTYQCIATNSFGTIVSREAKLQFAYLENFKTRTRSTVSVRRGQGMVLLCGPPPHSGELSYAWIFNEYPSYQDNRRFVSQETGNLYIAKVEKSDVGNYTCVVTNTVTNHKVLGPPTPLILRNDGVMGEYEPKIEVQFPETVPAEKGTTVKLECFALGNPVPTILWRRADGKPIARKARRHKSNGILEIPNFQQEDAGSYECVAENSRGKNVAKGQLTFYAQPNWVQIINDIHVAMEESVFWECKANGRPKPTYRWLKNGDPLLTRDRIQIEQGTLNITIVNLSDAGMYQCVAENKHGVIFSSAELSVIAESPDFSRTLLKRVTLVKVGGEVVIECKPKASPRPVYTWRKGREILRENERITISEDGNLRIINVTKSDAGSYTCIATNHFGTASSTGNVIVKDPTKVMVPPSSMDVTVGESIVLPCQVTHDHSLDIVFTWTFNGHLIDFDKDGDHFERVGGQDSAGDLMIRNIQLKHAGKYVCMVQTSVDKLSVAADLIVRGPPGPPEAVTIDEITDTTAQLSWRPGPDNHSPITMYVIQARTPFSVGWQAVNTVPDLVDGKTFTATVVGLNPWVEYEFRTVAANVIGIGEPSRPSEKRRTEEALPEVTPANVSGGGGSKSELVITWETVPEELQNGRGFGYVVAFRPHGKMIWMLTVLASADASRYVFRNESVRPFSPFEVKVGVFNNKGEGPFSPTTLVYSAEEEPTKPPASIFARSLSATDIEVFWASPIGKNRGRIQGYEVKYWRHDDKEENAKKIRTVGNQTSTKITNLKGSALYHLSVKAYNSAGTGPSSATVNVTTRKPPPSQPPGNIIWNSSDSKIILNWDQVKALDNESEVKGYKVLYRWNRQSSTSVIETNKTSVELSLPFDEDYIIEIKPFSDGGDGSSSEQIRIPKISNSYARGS

[1] = biological target: T3, human CNTN4 antigen expressed on the cell membrane of 293FT cells (human) (UniProt Q8IWV2); assay: FACS, 293FT cells transfected with human CNTN4, 40 ug/mL, anti-hCk-PE
T3 sequence (looked up): T1 sequence (looked up)

human CNTN4-10xHis = biological target: T4, human CNTN4-10xHis (human, UniProt Q8IWV2 19-1000); assay: ELISA, plate coated with CNTN4-10xHis, anti-human Fc-HRP
T4 sequence: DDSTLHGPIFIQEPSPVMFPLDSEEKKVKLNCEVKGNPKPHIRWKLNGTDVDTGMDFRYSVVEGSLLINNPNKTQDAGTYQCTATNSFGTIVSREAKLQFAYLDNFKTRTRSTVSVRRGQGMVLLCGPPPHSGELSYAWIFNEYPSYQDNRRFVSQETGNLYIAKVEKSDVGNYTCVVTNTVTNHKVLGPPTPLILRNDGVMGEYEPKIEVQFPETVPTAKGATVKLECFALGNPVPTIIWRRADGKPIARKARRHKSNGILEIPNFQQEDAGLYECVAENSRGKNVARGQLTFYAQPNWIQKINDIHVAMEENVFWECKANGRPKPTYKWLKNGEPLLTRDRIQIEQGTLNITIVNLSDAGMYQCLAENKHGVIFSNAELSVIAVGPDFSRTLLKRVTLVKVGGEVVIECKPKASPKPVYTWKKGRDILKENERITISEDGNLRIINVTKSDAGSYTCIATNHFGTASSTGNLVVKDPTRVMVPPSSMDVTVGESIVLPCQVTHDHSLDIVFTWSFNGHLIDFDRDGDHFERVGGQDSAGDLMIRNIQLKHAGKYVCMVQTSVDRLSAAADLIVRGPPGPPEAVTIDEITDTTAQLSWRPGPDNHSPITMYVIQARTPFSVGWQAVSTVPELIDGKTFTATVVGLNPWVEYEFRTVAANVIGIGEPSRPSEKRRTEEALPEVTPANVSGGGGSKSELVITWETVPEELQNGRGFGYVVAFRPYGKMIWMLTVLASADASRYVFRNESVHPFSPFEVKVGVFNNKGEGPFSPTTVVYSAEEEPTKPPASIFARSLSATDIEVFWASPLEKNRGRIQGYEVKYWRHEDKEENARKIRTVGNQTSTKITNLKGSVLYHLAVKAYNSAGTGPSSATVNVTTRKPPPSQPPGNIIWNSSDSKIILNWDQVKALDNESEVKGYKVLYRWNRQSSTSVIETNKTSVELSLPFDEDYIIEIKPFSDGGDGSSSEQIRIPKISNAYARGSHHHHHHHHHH
Method: (§1) The LAH2, L1H2, and L2H2 antibodies prepared in Example 3.1 were subjected to an ELISA test together with A-01. An ELISA plate was coated with 200 ng of antigens (human CNTN4-10xHis or mouse CNTN4-10xHis). For antibody binding, antibodies were serially diluted from a maximum of 1 μM to 0.0001 nM, thereby binding to the antigen. Anti-human Fc-HRP was used as a secondary antibody for antibody detection. Color was developed using ABTS, which is a color developing reagent, and the absorbance at 405 nm was measured.

mouse CNTN4-10xHis = biological target: T5, mouse CNTN4-10xHis (mouse, UniProt Q69Z26 19-1000); assay: as above
T5 sequence: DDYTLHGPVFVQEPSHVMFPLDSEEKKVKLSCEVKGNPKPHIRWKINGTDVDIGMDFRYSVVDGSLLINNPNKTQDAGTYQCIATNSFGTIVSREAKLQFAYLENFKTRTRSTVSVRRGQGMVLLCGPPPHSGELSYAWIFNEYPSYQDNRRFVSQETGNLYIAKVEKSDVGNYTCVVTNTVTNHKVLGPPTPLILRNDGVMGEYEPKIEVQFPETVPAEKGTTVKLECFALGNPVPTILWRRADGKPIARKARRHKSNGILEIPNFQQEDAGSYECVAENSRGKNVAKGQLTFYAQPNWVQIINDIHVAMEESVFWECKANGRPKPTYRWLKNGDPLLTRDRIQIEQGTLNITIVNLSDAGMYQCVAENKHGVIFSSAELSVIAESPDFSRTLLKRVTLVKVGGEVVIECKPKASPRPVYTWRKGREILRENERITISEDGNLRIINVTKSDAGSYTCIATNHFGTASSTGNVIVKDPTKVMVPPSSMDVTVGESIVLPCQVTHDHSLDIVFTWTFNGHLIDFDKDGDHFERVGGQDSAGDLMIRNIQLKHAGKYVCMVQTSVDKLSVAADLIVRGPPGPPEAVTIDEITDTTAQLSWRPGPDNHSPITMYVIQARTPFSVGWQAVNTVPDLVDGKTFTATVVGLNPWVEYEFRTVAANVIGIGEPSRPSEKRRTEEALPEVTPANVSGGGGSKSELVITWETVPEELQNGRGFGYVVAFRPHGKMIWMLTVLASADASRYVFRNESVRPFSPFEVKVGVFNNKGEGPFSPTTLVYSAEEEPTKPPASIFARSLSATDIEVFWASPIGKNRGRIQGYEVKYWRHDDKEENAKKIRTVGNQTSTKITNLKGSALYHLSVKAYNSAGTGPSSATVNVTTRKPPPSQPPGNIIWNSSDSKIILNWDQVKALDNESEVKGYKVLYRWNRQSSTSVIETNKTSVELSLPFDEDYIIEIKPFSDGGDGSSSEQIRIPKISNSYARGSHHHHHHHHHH
Method: as §1

Human CNTN-4 protein = biological target: T6, Human CNTN-4 protein (human, UniProt Q8IWV2 19-1000, limits assumed); assay: SPR, antibody captured by anti-human IgG Fc on CM5 chip, CNTN4 as analyte
T6 construct: soluble antigen run over the captured antibody; also called human CNTN4 (SPR analyte)
T6 sequence (looked up): T1 sequence (looked up)
Method: An SPR test was performed on L1H2, which is most humanized at about 98%, among the antibodies prepared in Example 3.1. More specifically, in order to bind anti-human IgG Fc (capture antibody) using amine coupling, CM5 chip was mounted, running buffer was allowed to flow, the chip was activated, and then capture antibody was attached thereto. Dextrin to which capture antibody was not attached was deactivated using ethanolamine, and then regeneration was performed using 3M magnesium chloride to clear analyte except capture antibody. The L1H2 prepared at a concentration of 0.05 μg/mL was allowed to flow for 30 seconds at a rate of 10 μL/min for binding. Thereafter, human CNTN4 (400 nM to 0.78 nM) prepared by sequential dilution as an antigen was allowed to flow at a rate of 30 μL/min for 3 minutes to be bound, and dissociation was performed for 5 minutes. Then, in order to clear all analytes attached to the capture antibody, a regeneration solution (3M magnesium chloride) was allowed to flow at a rate of 20 μL/min for 30 seconds, and regeneration was performed. For each concentration of antigen, binding of L1H2, binding of antigen, dissociation, and regeneration were repeated in order.

EC50 (human CNTN4-rabbit Fc): 2.37 nM | EC50 (mouse CNTN4-rabbit Fc): 1.06 nM | Shift % [1]: 15.8%
B1: anti-CNTN4 scFv-hCk S138 (scFv, part only; not given: linker and kappa constant region, V domains shown, not shown: another chain or arm of the molecule; a dimerising Fc or GST; small tags and cut ends)
VL: ALTQPSSVSANPGETVNITCSGGGSYAGSYYYGWYQQKAPGSAPVTVIYDSTNRPSNIPSRFSGSLSGSTNTLTITGVRAEDEAVYYCGGYDGSTDVFGAGTTLTVL
VH: AVTLDESEGGLQTPGGALSLVCKASGFTFSSFNMFWVRQAPGKGLEYVAEISGGGGSTWYAPAVKGRATISRDNGQSTVRLQLNNLRAEDTGTYYCAKSADTWSYGAATIDAWGHGTEVIVSS

EC50 (human CNTN4-10xHis): 0.017 nM | EC50 (mouse CNTN4-10xHis): 0.017 nM
B2: anti-CNTN4 humanized antibody LAH2 (antibody, V domains shown)
VH: EVQLLESEGGLVQPGGSLRLSCAASGFTFSSFNMFWVRQAPGKGLEWVAEISGGGGSTWYAPAVKGRATISRDNSKNTVYLQMNSLRAEDTAVYYCAKSADTWSYGAATIDAWGQGTLVTVSS
VL: ALTQPSSVSANLGETVKITCSGSSGSYGWYQQKSPGSAPVTLIYDNTNRPSDIPSRFSGSGSGSTGTLTITGVRAEDEAVYYCGGYDGSTDVFGAGTTLTVL
notes: in the form of IgG4

EC50 (human CNTN4-10xHis): 0.028 nM | fold difference in binding ability against A-01 (human CNTN4-10xHis): ≤ 3 times | EC50 (mouse CNTN4-10xHis): 0.029 nM | fold difference in binding ability against A-01 (mouse CNTN4-10xHis): ≤ 3 times | Kd (Human CNTN-4 protein): 93.2 nM
B3: anti-CNTN4 humanized antibody L1H2 (antibody, V domains shown)
VH: B2 VH
VL: ELTQDPAVSVALGQTVRITCSGSSGSYGWYQQKPGQAPVLVIYDNTNRPSGIPDRFSGSSSGNTASLTITGAQAEDEADYYCGGYDGSTDVFGGGTKLTVL
notes: in the form of IgG4

EC50 (human CNTN4-10xHis): 0.018 nM | EC50 (mouse CNTN4-10xHis): 0.019 nM
B4: anti-CNTN4 humanized antibody L2H2 (antibody, V domains shown)
VH: B2 VH
VL: B3 VL with L40T, V41L, N63S, A65G
notes: in the form of IgG4
